Source: publication PMC11028011

Molecular target: neonatal Fc receptor (FcRn) protein, immobilized on a column (UniProt P55899)
Test: FcRn affinity chromatography; FcRn immobilised on an affinity column (Roche); 30 µg antibody in 20 mM MES, 140 mM NaCl pH 5.5; 10 min at 20% buffer B (20 mM Tris, 140 mM NaCl pH 8.8), then 20-100% buffer B over 80 min; 0.5 mL/min

UniProt P55899, sequence (P55899 24-297): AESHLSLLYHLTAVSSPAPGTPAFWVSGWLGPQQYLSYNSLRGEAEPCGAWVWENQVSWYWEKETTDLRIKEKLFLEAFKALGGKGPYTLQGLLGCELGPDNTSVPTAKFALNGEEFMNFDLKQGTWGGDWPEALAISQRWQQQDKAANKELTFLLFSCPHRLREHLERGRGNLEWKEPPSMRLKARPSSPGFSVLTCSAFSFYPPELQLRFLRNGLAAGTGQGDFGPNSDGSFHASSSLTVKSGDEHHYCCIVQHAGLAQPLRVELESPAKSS

FcRn ret. time [min] | Substance
46.4 | Bapi (control), control variant without mutations (antibody)
46.4 | Bapi (monospecific bapineuzumab IgG with effector function reducing mutations L234A, L235A, P329G) (antibody)
46.4 | Bapi-Fab8D3 (bispecific bapineuzumab IgG1, knobs-into-holes, with a single-chain Fab of the TfR antibody 8D3 on the C-terminus of one heavy chain; L234A, L235A, P329G) (bispecific antibody)
